Literature values in paper PMC5266585.

Experiments:
[1] = molecular target: LRP1 principal ligand binding region fragments (Homo sapiens) (UniProt Q07954)
[2] = molecular target: LRP1 CR4-CR5-CR6 (Homo sapiens) (UniProt Q07954)

Kd [1]: < 3 nM
Kd [2]: 1.5 nM
Substance: PAI-1 (from UniProt P05121)
